Assay results: patent US20220033483A1 (GUAGNDONG FEIPENG BIOLOGICAL, published 2022)
Residue numbers refer to the chain shown, from its start. Where two headings read alike, the source gives them in different places.

Assays:
[1] = target: T1, cTnI quality control product recombinant protein (human, UniProt P19429 1-210, limits assumed); assay: AMC biosensor, antibody on sensor
T1 construct: the assay paragraphs only say cTnI; also called cardiac troponin I; cTnI antigen
Procedure: (§1) Operating process: it is equilibrated in Buffer 1 (PBST) for 60 s, the antibody is immobilized in an antibody solution for 300 s, incubated in Buffer 2 (PBST) for 180 s, bound in antigen solution for 420 s, dissociated in the Buffer 2 for 1200 s, 10 mM of GLY solution with pH 1.69 and Buffer 3 are used for sensor regeneration, and data is output.

[2] = target: T1, cTnI quality control product …; assay: capture ELISA, antibody 0.000 ng/ml (blank), cTnI 0.15 ug/ml
Procedure: (§2) After mutation, the antibody activity is detected, 1 μg/ml of goat anti-mouse IgG is diluted with coating solution to coat a microwell plate, 100 μL per well, and overnight at 4 DEG C.; on the next day, it is washed twice with washing solution, and patted dry; blocking solution (20% BSA+80% PBS) is added, 120 μL per well, 37 DEG C., and 1 h, and patted dry; a diluted cTnI monoclonal antibody is added, 100 μL/well, 37 DEG C., and 60 min; liquid in the plate is shaken off, patted dry, and […] of mouse negative blood is added for blocking, 120 μl per well, 37 DEG C., 1 h; liquid in the plate is shaken off, patted dry, a diluted cTnI antigen (0.15 μg/ml) is added, 100 μL per well, 37 DEG C., and 40 min; it is washed for 5 times with the washing solution, and patted dry; another strain of the cTnI monoclonal antibody (1:5K) labeled with HRP is added, 100 μL per well, 37 DEG C., and 30 min; color developing solution A (50 μL/well) is added, color developing solution B (50 μL/well) is added, 10 min; stop solution is added, 50 μL/well; and a OD value is read at 450 nm (refer to 630 nm) on a microplate reader.

[3] = target: T1, cTnI quality control product …; assay: capture ELISA, antibody 111.111 ng/ml, cTnI 0.15 ug/ml
Procedure: as §2

[4] = target: T1, cTnI quality control product …; assay: capture ELISA, antibody 1.372 ng/ml, cTnI 0.15 ug/ml
Procedure: as §2

[5] = target: T1, cTnI quality control product …; assay: capture ELISA, antibody 12.346 ng/ml, cTnI 0.15 ug/ml
Procedure: as §2

[6] = target: T1, cTnI quality control product …; assay: capture ELISA, antibody 1000.000 ng/ml, cTnI 0.15 ug/ml
Procedure: as §2

[7] = target: T1, cTnI quality control product …; assay: AMC biosensor, antibody on sensor; remark: listed apart in the source
Procedure: as §1

[8] = target: T1, cTnI quality control product …; assay: capture ELISA, antibody 333.333 ng/ml, cTnI 0.15 ug/ml
Procedure: as §2

[9] = target: T1, cTnI quality control product …; assay: capture ELISA, antibody 4.115 ng/ml, cTnI 0.15 ug/ml
Procedure: as §2

[10] = target: T1, cTnI quality control product …; assay: capture ELISA, antibody 37.037 ng/ml, cTnI 0.15 ug/ml
Procedure: as §2

T1 sequence (P19429 whole entry): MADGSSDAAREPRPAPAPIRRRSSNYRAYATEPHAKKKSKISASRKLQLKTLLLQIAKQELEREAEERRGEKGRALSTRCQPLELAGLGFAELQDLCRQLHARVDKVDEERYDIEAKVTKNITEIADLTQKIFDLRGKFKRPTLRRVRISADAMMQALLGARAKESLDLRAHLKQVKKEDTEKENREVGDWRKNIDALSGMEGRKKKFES

B1: Anti-cTnI 7B9 monoclonal antibody (recombinant, Sample 1) (antibody, mouse IgG1, kappa, V domains shown)
VH: QVQLQQSGTELAKPGASVKFSCKASDYTFSTYWMYWIKQRPGQGLEWIGYLNPSSGHTEYNQRFKDKATLTADKSSSTAYMQLNSLTSEDSAVYYCARKYFGPFAMDYWGQGTSVTVSS
VL: EIFLTQSPAIMSASPGEKVTMTCSASTTVSYAHWYQQKSGTSPKRWLYDSSKIASGIPVRFSGSGSGTSYSLTISSMEAEDAATYYCQNWSTQPYTFGGGTKLEIKR
notes: Recombinant mouse antibody expressed in CHO cells; also called WT; Anti-cTnI 7B9 antibody
- Kd [1]: 12.9 nM
- koff [1]: 0.000368 s⁻¹
- kon [1]: 28600 M⁻¹ s⁻¹
- OD 450 nm [2]: 0.144 OD
- OD 450 nm [3]: 1.88 OD
- OD 450 nm [4]: 0.174 OD
- OD 450 nm [5]: 0.947 OD
- OD 450 nm [6]: 2.1 OD
- Kd [7]: 12.9 nM
- koff [7]: 0.000368 s⁻¹
- kon [7]: 28600 M⁻¹ s⁻¹
- OD 450 nm [8]: 2.01 OD
- OD 450 nm [9]: 0.475 OD
- OD 450 nm [10]: 1.7 OD

B2: Mutation 1-7 (antibody, V domains shown)
VH: B1 VH with D26G, S30T, S55T, E59D, R63K, K99R, F101Y, A105G
VL: B1 VL with T28S, A32V, S50T, I53L, N89Q, Q93N
- Kd [7]: 2.92 nM
- koff [7]: 4.05e-05 s⁻¹
- kon [7]: 13900 M⁻¹ s⁻¹

B3: Mutation 1-49 (antibody, V domains shown)
VH: B1 VH with D26G, S30T, E59D, R63K, A105G
VL: B1 VL with T28S, A32V, S50T, I53L, N89Q, T92S
- Kd [7]: 5.94 nM
- koff [7]: 0.000195 s⁻¹
- kon [7]: 32800 M⁻¹ s⁻¹

B4: Mutation 1-3 (antibody, V domains shown)
VH: B1 VH with D26G, S30T, L51I, S55T, E59D, R63K, A105G
VL: B1 VL with T28S, A32V, L47I, S50T, I53L, N89Q, T92S, Q93N
- Kd [7]: 9.45 nM
- koff [7]: 0.000181 s⁻¹
- kon [7]: 19200 M⁻¹ s⁻¹

B5: Mutation 1-6 (antibody, V domains shown)
VH: B1 VH with D26G, S30T, T31S, E59D, K99R, A105G
VL: B1 VL with T27S, A32V, S50T, I53L, N89Q, Q93N
- Kd [7]: 2.32 nM
- koff [7]: 6.03e-05 s⁻¹
- kon [7]: 26000 M⁻¹ s⁻¹

B6: Mutation 1-2 (antibody, V domains shown)
VH: B1 VH with D26G, S30T, T31S, L51I, E59D, K99R, F101W, A105G
VL: B1 VL with T27S, A32V, S50T, I53L, N89Q, T92S
- Kd [7]: 7.96 nM
- koff [7]: 0.000302 s⁻¹
- kon [7]: 37900 M⁻¹ s⁻¹

B7: Mutation 1-11 (antibody, V domains shown)
VH: B1 VH with D26G, S30T, T31S, L51I, E59D, R63K, F101W, A105G
VL: B1 VL with T28S, A32V, L47I, S50T, I53L, N89Q
- Kd [7]: 0.221 nM
- koff [7]: 4.49e-06 s⁻¹
- kon [7]: 20300 M⁻¹ s⁻¹

B8: Mutation 1-48 (antibody, V domains shown)
VH: B1 VH with D26G, T31S, S55T, E59D, K99R, F101W, A105G
VL: B1 VL with T27S, A32V, L47I, S50T, N89Q, Q93N
- Kd [7]: 6.6 nM
- koff [7]: 8.58e-05 s⁻¹
- kon [7]: 13000 M⁻¹ s⁻¹

B9: Mutation 1-50 (antibody, V domains shown)
VH: B1 VH with D26G, S30T, T31S, S55T, E59D, R63K, K99R, F101W, A105G
VL: B1 VL with A32V, L47I, S50T, I53L, N89Q, T92S, Q93N
- Kd [7]: 1.09 nM
- koff [7]: 1.11e-05 s⁻¹
- kon [7]: 10200 M⁻¹ s⁻¹

B10: Mutation 1-5 (antibody, V domains shown)
VH: B1 VH with D26G, T31S, S55T, E59D, R63K, F101W, A105G
VL: B1 VL with T27S, T28S, A32V, L47I, S50T, N89Q, Q93N
- Kd [7]: 0.238 nM
- koff [7]: 1.17e-05 s⁻¹
- kon [7]: 49300 M⁻¹ s⁻¹

B11: Mutation 1-56 (antibody, V domains shown)
VH: B1 VH with D26G, S30T, E59D, K99R, F101W, A105G
VL: B1 VL with T28S, A32V, L47I, S50T, N89Q, T92S, Q93N
- Kd [7]: 6.07 nM
- koff [7]: 8.86e-05 s⁻¹
- kon [7]: 14600 M⁻¹ s⁻¹

B12: Mutation 1-51 (antibody, V domains shown)
VH: B1 VH with D26G, S30T, L51I, S55T, E59D, K99R, F101Y, A105G
VL: B1 VL with T28S, A32V, L47I, S50T, N89Q, T92S
- Kd [7]: 0.81 nM
- koff [7]: 2.15e-05 s⁻¹
- kon [7]: 26500 M⁻¹ s⁻¹

B13: Mutation 1-52 (antibody, V domains shown)
VH: B1 VH with D26G, S30T, L51I, S55T, E59D, K99R, F101W, A105G
VL: B1 VL with T28S, A32V, L47I, S50T, N89Q, T92S, Q93N
- Kd [7]: 1.01 nM
- koff [7]: 1.38e-05 s⁻¹
- kon [7]: 13600 M⁻¹ s⁻¹

B14: Mutation 2 (antibody, V domains shown)
VH: B1 VH with D26L, A105I
VL: B1 VL with S50T, N89V
notes: other CDR sites as WT
- Kd [1]: 15.6 nM
- koff [1]: 0.000434 s⁻¹
- kon [1]: 27800 M⁻¹ s⁻¹
- OD 450 nm [2]: 0.224 OD
- OD 450 nm [3]: 2.17 OD
- OD 450 nm [4]: 0.528 OD
- OD 450 nm [5]: 1.61 OD
- OD 450 nm [6]: 2.33 OD
- OD 450 nm [8]: 2.3 OD
- OD 450 nm [9]: 1.15 OD
- OD 450 nm [10]: 2.13 OD

B15: Mutation 1 (antibody, V domains shown)
VH: B1 VH with D26G, E59D, A105G
VL: B1 VL with A32V, S50T, N89Q
notes: other CDR sites as WT
- Kd [1]: 9.96 nM
- koff [1]: 0.000263 s⁻¹
- kon [1]: 26400 M⁻¹ s⁻¹
- OD 450 nm [2]: 0.193 OD
- OD 450 nm [3]: 2.4 OD
- OD 450 nm [4]: 1.03 OD
- OD 450 nm [5]: 2.34 OD
- OD 450 nm [6]: 2.34 OD
- Kd [7]: 9.96 nM
- koff [7]: 0.000263 s⁻¹
- kon [7]: 26400 M⁻¹ s⁻¹
- OD 450 nm [8]: 2.4 OD
- OD 450 nm [9]: 1.97 OD
- OD 450 nm [10]: 2.36 OD

B16: Mutation 3 (antibody, V domains shown)
VH: B1 VH with D26I, E59G, A105V
VL: B1 VL with A32I, S50T, N89R
notes: other CDR sites as WT
- Kd [1]: 17.8 nM
- koff [1]: 0.000481 s⁻¹
- kon [1]: 27000 M⁻¹ s⁻¹
- OD 450 nm [2]: 0.204 OD
- OD 450 nm [3]: 2 OD
- OD 450 nm [4]: 0.367 OD
- OD 450 nm [5]: 1.41 OD
- OD 450 nm [6]: 2.21 OD
- OD 450 nm [8]: 2.11 OD
- OD 450 nm [9]: 0.978 OD
- OD 450 nm [10]: 2 OD

B17: Mutation 5 (antibody, V domains shown)
VH: B1 VH with D26W, E59V, A105S
VL: B1 VL with A32S, S50Y, N89E
notes: other CDR sites as WT
- Kd [1]: 978000 nM
- koff [1]: 0.687 s⁻¹
- kon [1]: 702 M⁻¹ s⁻¹
- OD 450 nm [3]: 0.247 OD
- OD 450 nm [6]: 1.12 OD
- OD 450 nm [8]: 0.514 OD

B18: Mutation 4 (antibody, V domains shown)
VH: B1 VH with D26N, E59K, A105N
VL: B1 VL with A32E, S50Q, N89V
notes: other CDR sites as WT
- Kd [1]: 56700 nM
- koff [1]: 0.0371 s⁻¹
- kon [1]: 654 M⁻¹ s⁻¹
- OD 450 nm [3]: 0.374 OD
- OD 450 nm [6]: 1.28 OD
- OD 450 nm [8]: 0.678 OD
